Measurements: US20200262916A1, “Mammalian Atg8 Proteins Control Autolysosomal Biogenesis Through SNARES” (STC. UNM, priority 2019, published 2020)

Assays:
[1] = test system: HeLa cells stably expressing YFP-Parkin; experiment: Parkin-dependent mitophagy, HCM quantification of mitochondrial DNA (mtDNA); format: cell-based; conditions: wild type HeLa-YFP-Parkin cells; CCCP 10 μM or oligomycin A 5 μM and antimycin A 10 μM; 16 hours
[2] = test system: Huh7 cells; experiment: Pexophagy, Western blot of peroxisomal proteins PEX14 and PMP70; format: cell-based; conditions: H2O2 0.4 mM, over a period of 6 hours
[3] = target: T1, VPS41 (endogenous) (UniProt P49754 1-854, limits assumed); experiment: endogenous Co-IP with mouse anti-Stx6 antibody, HeLa cells
T1 construct: also called HOPS component VPS41
T1 sequence (looked up): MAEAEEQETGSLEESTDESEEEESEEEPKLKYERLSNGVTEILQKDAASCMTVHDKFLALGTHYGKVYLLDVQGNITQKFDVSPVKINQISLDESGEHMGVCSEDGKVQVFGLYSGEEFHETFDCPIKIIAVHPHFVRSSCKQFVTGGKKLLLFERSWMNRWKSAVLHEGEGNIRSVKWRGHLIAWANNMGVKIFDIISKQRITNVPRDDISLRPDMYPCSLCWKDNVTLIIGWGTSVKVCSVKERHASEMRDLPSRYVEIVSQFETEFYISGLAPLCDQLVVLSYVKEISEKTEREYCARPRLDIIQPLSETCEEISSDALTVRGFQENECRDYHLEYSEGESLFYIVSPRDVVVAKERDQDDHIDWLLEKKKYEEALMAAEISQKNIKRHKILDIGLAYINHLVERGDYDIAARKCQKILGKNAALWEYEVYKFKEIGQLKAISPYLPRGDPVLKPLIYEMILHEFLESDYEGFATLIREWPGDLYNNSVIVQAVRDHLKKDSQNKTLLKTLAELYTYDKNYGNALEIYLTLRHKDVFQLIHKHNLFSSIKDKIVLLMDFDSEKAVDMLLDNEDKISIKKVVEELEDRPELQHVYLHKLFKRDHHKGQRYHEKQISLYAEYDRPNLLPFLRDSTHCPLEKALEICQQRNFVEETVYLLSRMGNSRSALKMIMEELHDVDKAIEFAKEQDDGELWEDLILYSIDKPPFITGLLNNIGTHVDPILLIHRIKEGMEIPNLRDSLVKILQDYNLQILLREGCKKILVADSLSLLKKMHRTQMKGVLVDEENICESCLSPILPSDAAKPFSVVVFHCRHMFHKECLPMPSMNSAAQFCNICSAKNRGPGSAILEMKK

[4] = target: T2, VPS33A (endogenous, a component of the HOPS complex) (UniProt Q96AX1 1-596); experiment: as above
T2 sequence (looked up): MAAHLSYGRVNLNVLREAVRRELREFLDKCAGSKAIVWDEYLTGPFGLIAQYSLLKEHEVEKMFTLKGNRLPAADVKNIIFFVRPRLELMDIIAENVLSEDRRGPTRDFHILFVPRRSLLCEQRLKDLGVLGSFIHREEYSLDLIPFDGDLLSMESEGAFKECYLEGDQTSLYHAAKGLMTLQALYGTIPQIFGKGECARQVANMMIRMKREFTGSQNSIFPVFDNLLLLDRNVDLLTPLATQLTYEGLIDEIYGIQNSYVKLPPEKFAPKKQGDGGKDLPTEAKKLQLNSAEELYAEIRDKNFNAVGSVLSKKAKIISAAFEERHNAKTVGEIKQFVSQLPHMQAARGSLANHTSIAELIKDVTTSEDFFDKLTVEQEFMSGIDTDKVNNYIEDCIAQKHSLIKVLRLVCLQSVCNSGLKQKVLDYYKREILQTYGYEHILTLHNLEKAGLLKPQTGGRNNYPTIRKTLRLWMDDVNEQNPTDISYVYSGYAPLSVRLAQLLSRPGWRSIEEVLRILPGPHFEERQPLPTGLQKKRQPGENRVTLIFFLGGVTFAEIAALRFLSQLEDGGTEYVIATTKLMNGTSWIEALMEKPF

N#CC(C#N)=NNc1cccc(Cl)c1 [CCCP]
mtDNA as a measure of cellular mitochondrial content [1]: major reduction

OO [H2O2]
levels of peroxisomal constituents PEX14 and PMP70 [2]: decrease

B1: Stx6 (endogenous, precipitated with mouse anti-Stx6 antibody from HeLa cells) (other, UniProt O43752 2-255, looked up)
chain: SMEDPFFVVKGEVQKAVNTAQGLFQRWTELLQDPSTATREEIDWTTNELRNNLRSIEWDLEDLDETISIVEANPRKFNLDATELSIRKAFITSTRQVVRDMKDQMSTSSVQALAERKNRQALLGDSGSQNWSTGTTDKYGRLDRELQRANSHFIEEQQAQQQLIVEQQDEQLELVSGSIGVLKNMSQRIGGELEEQAVMLEDFSHELESTQSRLDNVMKKLAKVSHMTSDRRQWCAIAILFAVLLVVLILFLVL
notes: also called syntaxin 6
binding result [3]: binds
binding result [4]: no binding

B2: Vti1a (endogenous, in HeLa and U2OS cells) (other, UniProt Q96AJ9 1-217, looked up)
chain: MSSDFEGYEQDFAVLTAEITSKIARVPRLPPDEKKQMVANVEKQLEEAKELLEQMDLEVREIPPQSRGMYSNRMRSYKQEMGKLETDFKRSRIAYSDEVRNELLGDDGNSSENQRAHLLDNTERLERSSRRLEAGYQIAVETEQIGQEMLENLSHDREKIQRARERLRETDANLGKSSRILTGMLRRIIQNRILLVILGIIVVITILMAITFSVRRH
binding result [4]: no binding
